B1: VH:VL chains; a variant is named by its letters at X, in order (parent)
chain 1: QVQLVQSGAEVKKPGASVKVSCKASGYTFTDYXMHWVRQAPGQGLEWMGXVNPNXXXTTYNQKFEGRVTMTTDTSTSTAYMELRSLRSDDTAVYYCARXNXLDXWGQGTTVTVSS
chain 2: DIQMTQSPSSLSASVGDRVTITCSVSSSVSSIYLHWYQQKPGKAPKLLIYSTSNLASGVPSRFSGSGSGTDFTLTISSLQPEDFATYYCQVYSGYPLTFGGGTKVEIK

Variants of: B1
Test: yeast display scFab, FACS + sequencing
In short: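 Non-specific binding was called from deep sequencing of sorted yeast cells displaying a heavy-chain CDR mutant scFab library. Cells labelled with anti-Myc and biotinylated ovalbumin (260 μg/mL in PBSB, 3 h, room temperature) or soluble membrane proteins (130 μg/mL, 20 min on ice) were FACS-sorted, collecting the top 25% and bottom 10% of binders from two replicates. A sequence was positive when present in ≥3 of 4 pooled positive samples and absent from all negatives, and negative under the converse rule.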

Variant | non-specific binding call
YTRGNAWA | binds
DTTKGDGS | no binding
FTRTNFLS | binds
VTTKSYLV | no binding
VTTKSDVF | no binding
VTTKSDVA | no binding
DTTGSASF | no binding
DTTGSASD | no binding
ATTKSDGV | no binding
ATTKSDGA | no binding
DTTRDDSD | no binding
YTTRGSWV | no binding
STTKSDGV | no binding
ATTGSASF | no binding
YTTRGAGA | no binding
YTTGGDWA | no binding
STRKSYAA | binds
DTTGGDGV | no binding
FTTRDDSD | no binding
DTTKSSSS | no binding
ATTKSAVA | no binding
VTTKGDVF | no binding
VTTRGAVA | no binding
VTTRASGD | no binding
DTTGSSGV | no binding

Variant | non-specific binding call
VTTKSDGA | no binding
VTTKSDGY | no binding
ATTKSDAA | no binding
YTTGGAAV | no binding
ATTGGDWD | no binding
YTTGSASF | no binding
DTTGSALD | no binding
VTTKSDLA | no binding
FTTGGSAV chain 1 M48I | no binding
VTTGGDGV | no binding
YTRKSSVD | binds
DTTGSAVA | no binding
DTTGSAVV | no binding
YTRGSAWV | binds
VTTRAASV | no binding
VTTKSSSA | no binding
VTTKSAAV | no binding
VTTKSAAA | no binding
DTTGSDAV | no binding
STTGGDGV | no binding
YTTGGSSA | no binding
YTRGGSGA | binds
VTTKSSVA | no binding
ATTKSAGD | no binding
YTTGGYLV | binds

Variant | non-specific binding call
ATRTDDVF | no binding
YTTGGDGA | no binding
VTTKSDAV | no binding
VTTKSDSV | no binding
VTTKSDSA | no binding
FTRRSSLF chain 1 V111I | binds
DTTGSDWV | no binding
DTTGSDWY | no binding
DTTGSDWA | no binding
FTTRSALS | binds
VTTKSFGV | no binding
VTTKSAVA | no binding
VTTGGAVD | no binding
FTTRGAVA | no binding
VTTEASLD | no binding
YTTRDDSD | no binding
VTRGDVWV | no binding
VTTKSAGV | no binding
VTTKSAGD | no binding
DTTRADVD | no binding
YTTRGDGV | no binding
ATTRGAVA | no binding
VTTKSDWV | no binding
VTTRDDSD | no binding
YTTGGDVA | no binding

Variant | non-specific binding call
DTTKGDVA | no binding
DTTKGDVV | no binding
DTTRGAVA | no binding
VTRGDSGA | no binding
STTGSASF | no binding
VTTRAAVS | no binding
DTTKSDGV | no binding
YTTGGAVA | no binding
ATTGGDGV | no binding
YTTKSDGV | no binding
ATTKSDVA | no binding
VTTRADVA | no binding
VTTRADVY | no binding
VTTRADVF | no binding
VTTRADVV | no binding
DTTEASLV | no binding
DTRTAYGF | binds
VTTGSASF | no binding
YTRGASWV | no binding
YTRGASSS | no binding
VTTKSSAV | no binding
STTRGAVA | no binding
DTTGSDVY | no binding
DTTGSDVF | no binding
VTTADDWV | no binding

Reference: the emibetuzumab library of Makowski et al. (2022)
